Molecular target: T1, His6-LexA (Streptomyces mobaraensis NBRC 13819) (UniProt A0A5N5W758)
T1 sequence: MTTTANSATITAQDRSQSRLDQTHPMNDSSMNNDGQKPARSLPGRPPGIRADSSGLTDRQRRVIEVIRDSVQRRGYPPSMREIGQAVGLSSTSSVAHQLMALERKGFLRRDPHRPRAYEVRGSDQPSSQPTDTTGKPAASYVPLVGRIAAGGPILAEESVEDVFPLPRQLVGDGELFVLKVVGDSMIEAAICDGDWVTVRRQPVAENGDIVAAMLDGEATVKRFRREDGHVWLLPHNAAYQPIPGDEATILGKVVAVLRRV
Assay: EMSA
Details: EMSA: 0, 100, 200 ng His6-LexA, 25 nM probe, 20 uL; 30 mM KCl, 10 mM Tris-HCl (pH not stated), 0.4 mM DTT, 2 mM MgCl2, 0.2 mM EDTA, 2% glycerol; 30 min, 30 C …

Row | Sequence | binding
1 | CGGTGTGGAAGGTGGCGTGTACGGCATACGGATCGGAAGTGTCGTACCGCAGACCTGCGGGTACAGGCAGTGACGATTCGCTCGACACAACGAGGCGCAGGTGCAG (double strand) [Probe ssgA (106 bp)] | binds
2 | CAGGCTGGTACTGATCGTCACCTGCGCGATTGGCGAGACACCTGCTGAGCAGACCGCCGCGGACCATCTCGGACACCTGCCCGACCGCTGCATTCGCCAACCGCCTCCGCACTCTCAACGACG (double strand) [Probe whiB (123 bp)] | binds
3 | GAAAAGCGAACCAATTGGAATGTGGGGCCGGAACGGGAGGTCAGGCGTTCGACGTCACACTCCGCAGGGTACCGCTCACAGCCCGAAGCGGCGCTGGAGGTCTCCCAACTG (double strand) [Probe marR1 (112 bp)] | binds

— paper PMC11157053
